The chains are these.
B1: N^ε34-[(4S)-4-carboxy-4-[[(4S)-4-carboxy-4-[[(2S)-2-[[2-[[(2S)-4-carboxy-2-[[(2S)-2-[[2-(17-carboxyheptadecanoylamino)acetyl]amino]-3-hydroxypropanoyl]amino]but … (peptide)
peptide: [Desaminohistidyl][Aib]HGTFTSDVSKYLEEQAAREFIAWLLK([γGlu-γGlu-Ser-Gly-Glu-Ser-Gly-C18 diacid])T
notes: Named as peptide, not peptide amide (C-terminal acid)
B2: N^ε35-[(4S)-4-carboxy-4-[[2-[2-[2-[[(4S)-4-carboxy-4-[[2-[2-[2-[[(4S)-4-carboxy-4-[[2-[2-[2-[[(4S)-4-carboxy-4-[[(4S)-4-carboxy-4-(17-carboxyheptadecanoylamino) … (peptide)
peptide: XXHGTFTSDYSKYLEEQAAREFIAWLLKK
modifications: Imp (desamino-His) at 7; Acb at 8; Lys35 N-epsilon acylated with 17-carboxyheptadecanoyl-γGlu-γGlu-Ado-γGlu-Ado-γGlu-Ado-γGlu-; C-terminal amide (GLP-1(7-37) numbering)
B3: N^ε35-[(4S)-4-carboxy-4-[[2-[2-[2-[[(4S)-4-carboxy-4-[[2-[2-[2-[[(4S)-4-carboxy-4-[[2-[2-[2-[[(4S)-4-carboxy-4-[[(4S)-4-carboxy-4-(17-carboxyheptadecanoylamino) … (peptide)
peptide: XXHGTFTSDYSRYLEGRAAREFIAWLLRK
modifications: Imp (desamino-His) at 7; Acb at 8; Lys35 N-epsilon acylated with 17-carboxyheptadecanoyl-γGlu-γGlu-Ado-γGlu-Ado-γGlu-Ado-γGlu-; C-terminal amide (GLP-1(7-37) numbering)

*1 amine or outer side, *2 acyl side, *3 side chain or, on linkers, in order; H or OH if unused. Where no end group is shown, it is not given here. Side-chain parts run from the residue outwards. [ ]: non-standard residue; d: D form. The star is where a group is joined. C18 diacid = O=C(O)CCCCCCCCCCCCCCCCC(=O)*; γGlu = O=C(O)[C@H](CCC(=O)[*:2])N[*:1]; Desaminohistidyl = O=C(CCc1c[nH]cn1)*; Ac4c = NC1(C(=O)O)CCC1; AEEA = NCCOCCOCC(=O)O; Aib = CC(C)(N)C(=O)O

In the first assay the target is T1, human GLP-1 receptor (human, UniProt P43220 24-463). Nature of the assay: cell-based or functional assay.
[Desaminohistidyl]AHGTFTSDVSRYLEEQAARK([AEEA-AEEA-γGlu-γGlu-γGlu-C18 diacid])FIAWLLR: the “EC50 GLP-1R [pM], CRE luciferase reporter gene assay” value (“EC50 GLP-1R [pM]” for short) worked out at 8 pM.

Turning to [Desaminohistidyl]AHGTFTSDVSKYLEGRAAREFIAWLLK([Ado-Ado-γGlu-γGlu-γGlu-C18 diacid])T-NH2, the “EC50 GLP-1R [pM]” value turned out to be 8 pM.

As to [Desaminohistidyl][Aib]HGTFTSDVSKYLEEQAAREFIAWLLK([Ado-Ado-γGlu-C18 diacid])T-NH2, the “EC50 GLP-1R [pM]” value was 6 pM.

For [Desaminohistidyl][Aib]HGTFTSDVSRYLEEQAARK([AEEA-AEEA-γGlu-γGlu-γGlu-C18 diacid])FIAWLLR, the “EC50 GLP-1R [pM]” value came to 7 pM.

As to B1, the “EC50 GLP-1R [pM]” value was 5.5 pM.

As to [Desaminohistidyl][Aib]HGTFTSDVSKYLEEQAAREFIAWLLK([Gly-Ser-Glu-Gly-Ser-γGlu-γGlu-C18 diacid])T-NH2, the “EC50 GLP-1R [pM]” value was determined as 5 pM.

[Desaminohistidyl][Aib]HGTFTSDLSKYLEEQAAREFIAWLLK([Ado-Ado-γGlu-γGlu-C18 diacid])T-NH2: the “EC50 GLP-1R [pM]” value amounted to 14.7 pM.

As for [Desaminohistidyl][Ac4c]HGTFTSDVSKYLEEQAAREFIAWLLKK([Gly-Ser-Glu-Gly-Ser-γGlu-γGlu-C18 diacid])-NH2, the “EC50 GLP-1R [pM]” value was 2 pM.

As to B2, the “EC50 GLP-1R [pM]” value is 3 pM.

Turning to B3, the “EC50 GLP-1R [pM]” value was 18.5 pM.

The target of another assay is T2, human glucagon receptor (human, UniProt P47871 26-477). Nature of the assay: cell-based or functional assay.
T2 sequence (P47871 26-477): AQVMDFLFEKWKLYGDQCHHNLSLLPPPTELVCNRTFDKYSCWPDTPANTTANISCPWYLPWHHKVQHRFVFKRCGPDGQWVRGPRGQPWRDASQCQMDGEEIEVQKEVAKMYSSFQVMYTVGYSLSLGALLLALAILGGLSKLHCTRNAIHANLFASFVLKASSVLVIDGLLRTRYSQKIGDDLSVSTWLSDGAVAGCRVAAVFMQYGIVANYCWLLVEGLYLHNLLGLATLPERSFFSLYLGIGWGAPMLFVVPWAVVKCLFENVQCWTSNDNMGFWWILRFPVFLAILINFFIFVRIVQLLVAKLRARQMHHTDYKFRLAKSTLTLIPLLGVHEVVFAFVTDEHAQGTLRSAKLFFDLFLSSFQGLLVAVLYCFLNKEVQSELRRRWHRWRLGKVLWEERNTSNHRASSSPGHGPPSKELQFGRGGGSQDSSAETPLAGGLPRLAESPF
For the molecule [Desaminohistidyl]AHGTFTSDVSRYLEEQAARK([AEEA-AEEA-γGlu-γGlu-γGlu-C18 diacid])FIAWLLR, the “EC50 GlucagonR [pM], CRE luciferase reporter gene assay” value (from here on “EC50 GlucagonR [pM]”) stood at 1290 pM.

On to [Desaminohistidyl]AHGTFTSDVSKYLEGRAAREFIAWLLK([Ado-Ado-γGlu-γGlu-γGlu-C18 diacid])T-NH2, for which the “EC50 GlucagonR [pM]” value is 229 pM.

Take [Desaminohistidyl][Aib]HGTFTSDVSKYLEEQAAREFIAWLLK([Ado-Ado-γGlu-C18 diacid])T-NH2: the “EC50 GlucagonR [pM]” value was 83 pM.

Regarding [Desaminohistidyl][Aib]HGTFTSDVSRYLEEQAARK([AEEA-AEEA-γGlu-γGlu-γGlu-C18 diacid])FIAWLLR, the “EC50 GlucagonR [pM]” value came out at 143 pM.

For the molecule B1, the “EC50 GlucagonR [pM]” value was determined as 84.5 pM.

Regarding [Desaminohistidyl][Aib]HGTFTSDVSKYLEEQAAREFIAWLLK([Gly-Ser-Glu-Gly-Ser-γGlu-γGlu-C18 diacid])T-NH2, the “EC50 GlucagonR [pM]” value was 40.7 pM.

Consider [Desaminohistidyl][Aib]HGTFTSDLSKYLEEQAAREFIAWLLK([Ado-Ado-γGlu-γGlu-C18 diacid])T-NH2, for which the “EC50 GlucagonR [pM]” value is 54.2 pM.

On to [Desaminohistidyl][Ac4c]HGTFTSDVSKYLEEQAAREFIAWLLKK([Gly-Ser-Glu-Gly-Ser-γGlu-γGlu-C18 diacid])-NH2, for which the “EC50 GlucagonR [pM]” value stood at 163 pM.

As for B2, the “EC50 GlucagonR [pM]” value came out at 78 pM.

Regarding B3, the “EC50 GlucagonR [pM]” value turned out to be 226 pM.

A further assay addresses T1, human GLP-1 receptor. The assay is described as follows: SPA displacement of [125I]GLP-1(7-36)NH2 from hGLP-1R BHK membranes. The procedure:
The GLP-1 receptor binding of each derivatives were determined with competitive binding, displacing [¹²⁵I]GLP-1 bound to GLP-1 receptors expressed in cell membranes associated with wheat germ agglutinin (WGA) scintillation proximity assay (SPA) beads. Each derivative was added in a series of concentrations to isolated membranes comprising the human GLP-1 receptor and displacement of the labelled radioligand was monitored. The receptor binding was reported as the concentration at which half of the labelled ligand is displaced from the receptor, the IC⁵⁰ value.
1. For the receptor binding assay 50 μl of the assay buffer was added to each well of an assay plate. [0588] 2. Test compounds were serially diluted to give the following concentrations: 8×10EE-7 M, 8×10EE-8 M, 8×10EE-9 M, 8×10EE-10 M, 8×10EE-11 M, 8×10EE-12 M and 8×10EE-13 M. Twenty-five μl were added to appropriate wells in the assay plate. [0589] 3. Cell membrane aliquots were thawed and diluted to their working concentration. Fifty μl were added to each well in the assay plate. [0590] 4. WGA SPA beads were suspended in assay buffer at 20 mg/ml. The suspension was diluted to 10 mg/ml in assay buffer just prior to addition to the assay plate. Fifty μl were added to each well in the assay plate. [0591] 5. […] A 25 μl aliquot was reserved for measuring total counts/well. [0592] 6. The assay plate was incubated for 2 h at 30° C. [0593] 7. The assay plate was centrifuged for 10 min. [0594] 8. The assay plate was read in a Perkin Elmer TopCount NXT instrument.
Molecule [Desaminohistidyl]AHGTFTSDVSRYLEEQAARK([AEEA-AEEA-γGlu-γGlu-γGlu-C18 diacid])FIAWLLR came in with an IC50 of 2.2 nM.

On to [Desaminohistidyl]AHGTFTSDVSKYLEGRAAREFIAWLLK([Ado-Ado-γGlu-γGlu-γGlu-C18 diacid])T-NH2, for which the IC50 came out at 1 nM.

On to [Desaminohistidyl][Aib]HGTFTSDVSKYLEEQAAREFIAWLLK([Ado-Ado-γGlu-C18 diacid])T-NH2, for which the IC50 came out at 0.7 nM.

In turn, [Desaminohistidyl][Aib]HGTFTSDVSRYLEEQAARK([AEEA-AEEA-γGlu-γGlu-γGlu-C18 diacid])FIAWLLR gave an IC50 of 2.9 nM.

As for B1, the 50% inhibitory concentration (IC50) was determined as 2.3 nM.

Consider [Desaminohistidyl][Aib]HGTFTSDVSKYLEEQAAREFIAWLLK([Gly-Ser-Glu-Gly-Ser-γGlu-γGlu-C18 diacid])T-NH2, for which the IC50 worked out at 0.4 nM.

[Desaminohistidyl][Aib]HGTFTSDLSKYLEEQAAREFIAWLLK([Ado-Ado-γGlu-γGlu-C18 diacid])T-NH2: the IC50 is 1.1 nM.

As to [Desaminohistidyl][Ac4c]HGTFTSDVSKYLEEQAAREFIAWLLKK([Gly-Ser-Glu-Gly-Ser-γGlu-γGlu-C18 diacid])-NH2, the IC50 was 0.1 nM.

As for B2, the IC50 came out at 1.4 nM.

For B3, the IC50 came to 6.8 nM. Against the preceding molecule, the IC50 is about 4.9-fold higher.

For the next assay, the target named is T2, human glucagon receptor. Nature of the assay: SPA displacement of [125I]-glucagon from human glucagon receptor BHK membranes. As to the method:
1. For the receptor binding assay 50 μl of the assay buffer was added to each well of an assay plate. [0603] 2. Test compounds were serially diluted to give the following concentrations: 8×10EE-7 M, 8×10EE-8 M, 8×10EE-9 M, 8×10EE-10 M, 8×10EE-11 M, 8×10EE-12 M and 8×10EE-13 M. Twenty-five μl were added to appropriate wells in the assay plate. [0604] 3. Cell membrane aliquots were thawed and diluted to their working concentration. Fifty μl were added to each well in the assay plate. [0605] 4. WGA SPA beads were suspended in assay buffer at 20 mg/ml. The suspension was diluted to 10 mg/ml in assay buffer just prior to addition to the assay plate. Fifty μl were added to each well in the assay plate. [0606] 5. […] A 25 μl aliquot was reserved for measuring total counts/well. […] 6. The assay plate was incubated for 2 h at 25° C. [0608] 7. The assay plate was centrifuged for 10 min at 1500 rpm. [0609] 8. The assay plate was read in a Perkin Elmer TopCount NXT instrument.
[Desaminohistidyl]AHGTFTSDVSRYLEEQAARK([AEEA-AEEA-γGlu-γGlu-γGlu-C18 diacid])FIAWLLR showed an IC50 of 126 nM. This lies in the sub-micromolar range.

Molecule [Desaminohistidyl]AHGTFTSDVSKYLEGRAAREFIAWLLK([Ado-Ado-γGlu-γGlu-γGlu-C18 diacid])T-NH2 displayed an IC50 of 25.9 nM.

Regarding [Desaminohistidyl][Aib]HGTFTSDVSKYLEEQAAREFIAWLLK([Ado-Ado-γGlu-C18 diacid])T-NH2, the half-inhibitory concentration (IC50) was 20.3 nM. This IC50 and that of the molecule before are within 1.5-fold of each other.

Turning to [Desaminohistidyl][Aib]HGTFTSDVSRYLEEQAARK([AEEA-AEEA-γGlu-γGlu-γGlu-C18 diacid])FIAWLLR, the IC50 was found to be 21.2 nM.

B1 showed an IC50 of 11.9 nM. Against the preceding molecule, the IC50 is about 1.8-fold lower.

For the molecule [Desaminohistidyl][Aib]HGTFTSDVSKYLEEQAAREFIAWLLK([Gly-Ser-Glu-Gly-Ser-γGlu-γGlu-C18 diacid])T-NH2, the concentration for half-maximal inhibition (IC50) came out at 3.2 nM.

The molecule [Desaminohistidyl][Aib]HGTFTSDLSKYLEEQAAREFIAWLLK([Ado-Ado-γGlu-γGlu-C18 diacid])T-NH2 yielded an IC50 of 5.1 nM.

[Desaminohistidyl][Ac4c]HGTFTSDVSKYLEEQAAREFIAWLLKK([Gly-Ser-Glu-Gly-Ser-γGlu-γGlu-C18 diacid])-NH2 returned a half-inhibitory concentration (IC50) of 43.9 nM.

Consider B2, for which the IC50 was found to be 6.9 nM.

In the case of B3, the IC50 came out at 36.7 nM.

The IC50 is the concentration that inhibits the measured activity by half. The low end stands for inhibition by little substance, the high end for a need for much substance.

The values are drawn from patent US20160102129A1 (Novo Nordisk, published 2016).
